Reference: article PMC10312132
Like-named read-outs stand apart in the source and are kept apart here.

Key:
Test in all cases: EMSA
[1] = biological target: T1, RAD52 full-length (Homo sapiens, UniProt P43351 1-418)
T1 sequence: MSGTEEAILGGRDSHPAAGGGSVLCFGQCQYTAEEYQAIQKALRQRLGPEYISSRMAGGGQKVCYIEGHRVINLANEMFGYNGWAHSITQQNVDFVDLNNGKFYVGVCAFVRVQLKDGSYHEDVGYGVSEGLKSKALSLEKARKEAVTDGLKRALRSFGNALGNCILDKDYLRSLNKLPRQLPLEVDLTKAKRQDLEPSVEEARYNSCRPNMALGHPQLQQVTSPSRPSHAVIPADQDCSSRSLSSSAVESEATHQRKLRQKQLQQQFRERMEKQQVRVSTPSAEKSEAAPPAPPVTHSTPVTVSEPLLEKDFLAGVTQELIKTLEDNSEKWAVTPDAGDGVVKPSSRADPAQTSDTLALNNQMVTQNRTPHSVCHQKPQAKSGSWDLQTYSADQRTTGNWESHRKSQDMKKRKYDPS

[2] = biological target: T1, RAD52 full-length; remark: listed apart in the source
[3] = biological target: T1, RAD52 full-length; remark: listed apart in the source
[4] = biological target: T1, RAD52 full-length; remark: listed apart in the source

B1: ISE#1 40-mer ssDNA (ssDNA)
DNA: ACAGCACCAGATTCAGCAATTAAGCTCTAAGCCATCCGCA
**Q.** Does B1 bind [1]?
**A.** Result: binds

B2: ISE#4 40-mer ssDNA (ssDNA)
DNA: TGCGGATGGCTTAGAGCTTAATTGCTGAATCTGGTGCTGT
**Q.** Does B2 bind [2]?
**A.** Result: binds

B3: CA#1 40-mer ssRNA (ssRNA)
RNA: AAUACCGCAUCAGGAAAUUGUAAGCGUUAAUAUUUUGUUA
**Q.** Does B3 bind [3]?
**A.** Result: binds

B4: ISE#3 40-mer ssRNA (ssRNA)
RNA: UGCGGAUGGCUUAGAGCUUAAUUGCUGAAUCUGGUGCUGU
**Q.** Does B4 bind [4]?
**A.** Result: binds
